Laboratory results published in the array DNA melting data of Ke et al..

Test: melting temperature; melt of duplexes
Details: sodium 0.0675 M; strand 1 µM

| Substance | Tm [°C] |
| --- | --- |
| CGACGTGCGTAATGTGCTG+CAGCACATGTGGCACGTCG ((((((((...((((((((+))))))))...)))))))) | 51.8 |
| CGACGTGCCTCATGTGCTG+CAGCACATCGAGCACGTCG ((((((((...((((((((+))))))))...)))))))) | 50 |
| CGACGTGCTGTATGTGCTG+CAGCACATCCGGCACGTCG ((((((((.(.((((((((+)))))))).).)))))))) | 52.8 |
| CGACGTGCATAATGTGCTG+CAGCACATGCAGCACGTCG ((((((((...((((((((+))))))))...)))))))) | 51.4 |
| CGACGTGCCCGATGTGCTG+CAGCACATACGGCACGTCG (((((((((..((((((((+))))))))..))))))))) | 53.5 |
| CGACGTGCGCGATGTGCTG+CAGCACATCCCGCACGTCG (((((((((.(((((((((+))))))))).))))))))) | 59.2 |
| CGACGTGCGACATGTGCTG+CAGCACATTGCGCACGTCG (((((((((..((((((((+))))))))..))))))))) | 55.3 |
| CGACGTGCTCGATGTGCTG+CAGCACATTACGCACGTCG ((((((((...((((((((+))))))))...)))))))) | 48.6 |
| CGACGTGCTATATGTGCTG+CAGCACATTGGGCACGTCG ((((((((...((((((((+))))))))...)))))))) | 50.5 |
| CGACGTGCTCCATGTGCTG+CAGCACATTTAGCACGTCG (((((((((..((((((((+))))))))..))))))))) | 49.4 |
| CGACGTGCTCAATGTGCTG+CAGCACATTCTGCACGTCG ((((((((..(((((((((+)))))))))..)))))))) | 50.8 |
| CGACGTGCTTCATGTGCTG+CAGCACATAACGCACGTCG ((((((((.(.((((((((+)))))))).).)))))))) | 49.3 |
| CGACGTGCGCGATGTGCTG+CAGCACATAGAGCACGTCG ((((((((.(.((((((((+)))))))).).)))))))) | 55.8 |
| CGACGTGCGGAATGTGCTG+CAGCACATCTGGCACGTCG ((((((((...((((((((+))))))))...)))))))) | 52.3 |
| CGACGTGCGTGATGTGCTG+CAGCACATCTTGCACGTCG ((((((((..(((((((((+)))))))))..)))))))) | 55.6 |
| CGACGTGCCGCATGTGCTG+CAGCACATTCTGCACGTCG ((((((((.(.((((((((+)))))))).).)))))))) | 48.8 |
| CGACGTGCTGGATGTGCTG+CAGCACATCGCGCACGTCG ((((((((..(((((((((+)))))))))..)))))))) | 54.8 |
| CGACGTGCAATATGTGCTG+CAGCACATAAAGCACGTCG ((((((((..(((((((((+)))))))))..)))))))) | 52 |
| CGACGTGCAAAATGTGCTG+CAGCACATGGAGCACGTCG ((((((((...((((((((+))))))))...)))))))) | 53.9 |
| CGACGTGCCCGATGTGCTG+CAGCACATTACGCACGTCG ((((((((...((((((((+))))))))...)))))))) | 48 |
| CGACGTGCTTCATGTGCTG+CAGCACATATCGCACGTCG ((((((((...((((((((+))))))))...)))))))) | 47.5 |
| CGACGTGCAAGATGTGCTG+CAGCACATAGTGCACGTCG (((((((((..((((((((+))))))))..))))))))) | 48.6 |
| CGACGTGCTATATGTGCTG+CAGCACATTGCGCACGTCG ((((((((...((((((((+))))))))...)))))))) | 47.4 |
| CGACGTGCTGAATGTGCTG+CAGCACATCATGCACGTCG ((((((((...((((((((+))))))))...)))))))) | 53.1 |
| CGACGTGCGTTATGTGCTG+CAGCACATCGAGCACGTCG ((((((((...((((((((+))))))))...)))))))) | 52.2 |
| CGACGTGCGTAATGTGCTG+CAGCACATTCAGCACGTCG ((((((((..(((((((((+)))))))))..)))))))) | 54.7 |

| Substance | Tm [°C] |
| --- | --- |
| CGACGTGCCTTATGTGCTG+CAGCACATCAAGCACGTCG ((((((((.(.((((((((+)))))))).).)))))))) | 48.8 |
| CGACGTGCTACATGTGCTG+CAGCACATTCCGCACGTCG ((((((((...((((((((+))))))))...)))))))) | 47.2 |
| CGACGTGCTGTATGTGCTG+CAGCACATACTGCACGTCG ((((((((.((((((((((+)))))))))).)))))))) | 57.8 |
| CGACGTGCGAAATGTGCTG+CAGCACATGCGGCACGTCG ((((((((...((((((((+))))))))...)))))))) | 51.7 |
| CGACGTGCAATATGTGCTG+CAGCACATGTTGCACGTCG ((((((((((.((((((((+)))))))).)))))))))) | 58.4 |
| CGACGTGCCGCATGTGCTG+CAGCACATAGTGCACGTCG ((((((((...((((((((+))))))))...)))))))) | 46.8 |
| CGACGTGCACAATGTGCTG+CAGCACATAAAGCACGTCG ((((((((...((((((((+))))))))...)))))))) | 47.4 |
| CGACGTGCTCGATGTGCTG+CAGCACATCGAGCACGTCG (((((((((((((((((((+))))))))))))))))))) | 66.6 |
| CGACGTGCGATATGTGCTG+CAGCACATCTGGCACGTCG ((((((((.(.((((((((+)))))))).).)))))))) | 50 |
| CGACGTGCTACATGTGCTG+CAGCACATCGCGCACGTCG ((((((((...((((((((+))))))))...)))))))) | 46.9 |
| CGACGTGCCGAATGTGCTG+CAGCACATGGAGCACGTCG ((((((((...((((((((+))))))))...)))))))) | 53.1 |
| CGACGTGCCCCATGTGCTG+CAGCACATCTAGCACGTCG ((((((((...((((((((+))))))))...)))))))) | 47.3 |
| CGACGTGCTTCATGTGCTG+CAGCACATCAGGCACGTCG ((((((((.(.((((((((+)))))))).).)))))))) | 49.1 |
| CGACGTGCTGCATGTGCTG+CAGCACATTGAGCACGTCG (((((((((..((((((((+))))))))..))))))))) | 52.2 |
| CGACGTGCAAGATGTGCTG+CAGCACATTTAGCACGTCG ((((((((.(.((((((((+)))))))).).)))))))) | 51.1 |
| CGACGTGCCGCATGTGCTG+CAGCACATGGCGCACGTCG ((((((((..(((((((((+)))))))))..)))))))) | 54.9 |
| CGACGTGCTTGATGTGCTG+CAGCACATGATGCACGTCG ((((((((.(.((((((((+)))))))).).)))))))) | 51.6 |
| CGACGTGCACCATGTGCTG+CAGCACATTTAGCACGTCG ((((((((...((((((((+))))))))...)))))))) | 42.2 |
| CGACGTGCTTCATGTGCTG+CAGCACATCAAGCACGTCG ((((((((((.((((((((+)))))))).)))))))))) | 53.3 |
| CGACGTGCTTCATGTGCTG+CAGCACATCGGGCACGTCG ((((((((...((((((((+))))))))...)))))))) | 48.9 |
| CGACGTGCTCCATGTGCTG+CAGCACATCTCGCACGTCG ((((((((...((((((((+))))))))...)))))))) | 46.2 |
| CGACGTGCATGATGTGCTG+CAGCACATAAGGCACGTCG ((((((((.(.((((((((+)))))))).).)))))))) | 52.8 |
| CGACGTGCGCAATGTGCTG+CAGCACATCAAGCACGTCG ((((((((...((((((((+))))))))...)))))))) | 53.1 |
| CGACGTGCACCATGTGCTG+CAGCACATCTGGCACGTCG ((((((((...((((((((+))))))))...)))))))) | 43.7 |
| CGACGTGCGAGATGTGCTG+CAGCACATACGGCACGTCG ((((((((...((((((((+))))))))...)))))))) | 50.1 |
| CGACGTGCGGGATGTGCTG+CAGCACATTATGCACGTCG ((((((((...((((((((+))))))))...)))))))) | 51.8 |
